Measurements: a protein production outcome set (Wang et al. 2014)

Assay: label from the status in PepcDB records

Sequence	protein production
MTLLRVGGVPEPFNEIFMQAQEGALPSTKLQVEFLGVAGGSGAALEMLAKCELDVAVTLTESAVARTKAAASGLAVHSVYVASPLAWGVAVSSKKTDWTDLNSLDAAVLRGESIRAGFSRRGSGSHLLLSVFASDRGWISTGIQNDILKSFECGSFDGLIQAAVAGDIDMFLWETCFTKECAATRQGLIRLVGEYAPSWPAFVLVCRDDAHVRAAVSELKREIEPLQRKFCTGEGLDILQNKYGFSLESAKLWLSRLQFAEPDEALSAEQWRSVERALELTAGSRSSSR	not failed
MSDIAVRPIRAEDVPQACAILNRIIEIGGTTAFEQPVSEDEFDAWYVNGADLICCHVALDAAGAVAGFQWLGRNDSLPEGCGDIASFTRREPVLRGAGRALFACTVAVARDRGLAEINATIRADNALGLAYYGKMGFRDHVVTPAVPLRDGRPVDRISKRFDLRG	failed
GAEKEDLVQEGILGLLKAIKFYDETKSSFSSFAFLCIRREMISAIRKANTQKHMVLNEALKTNAILEDSAYFDDEGHNINNYKSSESNPEEAYLLKEEIEEFKKFSENNFSKFEKEVLTYLIRGYSYREIATILSKNLKSIDNTIQRIRKKSEEWIKEEENIKR	not failed
MSGPERLLTRAPTHRPERPRLTLVSRRVMRTIGWLLLLIGGLAGGLSSAAGQPSAPPDTIRGDAVAPSPAPASGDLAGQGGALEATPLFYVAEDAATLHNRSGLNAPVTRLAMRTPVRRLSCEADWCRVRTDGGTTGYVAADALSNVWIRVSKRKRRVYVYRGAELAHAFEADMAYNAFADKKRNGGKTRPDHWRTPEGTFYVVHKNPQSEFYKALVLNYPKVEDARRGLDAGLISRAQYEAIRQAQQEHRMPPMGTDLGGWIEIHGDGTGDATAWTQGCVAIRNGAMDVIWEQVRVGTPVLIE	failed
MAKHVIIGAGSIGTNVARLLAEGGESVRIVTRSGSGPEHPLVDRVAADASDPSRLTELSRGAGVIYHCANPPSYTVWERLLPPLQTAAITAAKANDAVLALTGSLYAYGPQPGGRMNEHTPMAATGHKGRLRRRMWEQALAGGIRTVEVRGSDYIGKDANGIYSLLIKSALQKGKAAWITGHLDMPHTFTFNGDMAQALITLASEERAWGRPWHVPSAPAVTIRELARRYAVAAGRPPIKLIQIPRSVTRTAGLIVPIAREMAEMDYQWYAPFHMDATETTETFGLTATDLDTAVRNEVG	failed
GSIPRVLISADRSSSGKTTISMGLMAALVSRGYKVQPFKVALDYIDPSYHTEITGRFCRNLDGYLMDEHGILDVYTHACETGGGADIAIIEGVRGLFEGFESLSDVGSTAQIAKILKCPVVFVINARSITRSAAALIGGYKNFDPDVEIAGVILNNIGGRRHAQKAKEAIEHYTGVPVLGIIPRDPSMQISMRHLGLMPALEGRRRFGDGGFENRLHGIEEIINKGIDVDRFLGIAESAKPLTALENSIFSPAVNENSQKPKIGVALDEAFNFYYRDNIDLLEIAGAEIVYFSPVNDPGLPEVDGLYIGGGYPELFAAELEANETMRKSIKEASAAGMPIYAECGGLMYLTEKISTGVPGKGTYHDASMPESTYSMVGALPGHTIMGQTRVVSYNIGTLARDCPIGKKGNSFKGHEFHHSEILEIPDDAEFAIALTRGTGIRGDRDGLIVNNTIGSYAHLHGVAYRELAGSLVEAARKFRDS	failed
MHPKTQQILEVFEEINKIPRRSKHEEQISTWLQEWGRSRGFEVKADSLNNVLIKVPATTGYEDSPTLILQGHMDMVCEKCKDSIHDFSRDPIRCICDGDWMRGDGTSIGADDGIALALGLVMAEAGKKGEIGHPPLELLFTVDEETGLTGARGLETGFFEGKILLNLDSEDEGIFVIGCAGGQNSQITLPVEWELLDFKEENLFRFFRLSVEGLEGGHSGTEINKQRANGIQLLSLALVKLRGKLGIENVRLVLLNGGTVHNAIPSTAEAFIALHGEKLEKAAETMSDIRHAFKAEYAKTDPGLILNFEEISREIIFEVAEDKIPREEVSHVRVFSLETEEKLLELILGLPHGVYRMSETIHGLVETSNNLATVRTAGNEVIIVSSQRSSNNLRLAEISGKVEAISKLAGAWVEHEPGYPAWEPNLKSELILKCKQVYTETFGKEPEIEVIHAGLECGIIGSAHEGMEMISFGPTIKDAHSPAEKIFVPSIEKVWIFLENLFKTYC	failed
MDFFTDQVKKKFSDKKPESSDPEPNHNKNKPGHTEPTTHKPGHGEPTTHKPVSNTDPTTHRPATNAELMASAKIVAEAAQAAARHESDKLDKAKVAGATADILDAASRYGKLDEKSGVGQYLEKAEQYLHKYETSHSHSSTGGTGSHGNVGGHGGGAGAPAAKKEDEKSGGGHGFGDYAKMAQGFMK	failed
MEGFGMPKLIISGRGGSGKSTLVTLIAHTLKEQKKRVLVVDSDESNIGLSGILGIEPAEKTLMDYLGGKPRVMKKLRSMIRDGETEPELFREKFDLESLSQEFVCWVGSLGLMQIGKIDHAMEGCACPMGAVTRDFLNHVRLEEDQWVLVDTEAGVEHFGRGIVEGADAVVMVVDPSSDAVLLAEKAAKLTHEADKRFGVILNKIDEETEPILTELLTSEGNEIKGVLPYSPAITKMNLKGESLGAYAVKNEVDEIIRELMKCLEHHHHHH	failed
MIWMAEIEGIYTIWLREMKRFFRYRSRIVTSIVTPLLWLIIFGTGLGAAVRFGGVPGGYKAFIYPGIIGQTVLFTSIFSGVSVIIDRQYGFLKEILVAPISRESMVVGKALGISTASMIQAAILLALSFIVGITMSPQCFIVSMVIALIISMGLGGLGLVIAAFTDSMEGFNLIMSFIVLPIFLLSGALFPITGLPAWLQGAVYINPLTYAVDALRFTILRRSVLPLEVNLLVITIFAVIAVLIAAFLFNRKEQNLM	failed
MKFIRRCMMETRYTVRQAVEMTGVKSYVLRYWEEELELQIHRNELGHRYYTGYDIQLFLNIKELKKRGLQLRAIKNLIPQITASMTGFGESASTLLEGEVIDHAEVKTDRDLKEKISKKDEGKNDKILEFQAILERLITQELKAQNEDEERCRSLDYAIRRQQLARKEAAAAAEKKSGRRRRDK	not failed
MTNERVMQLIREAYEKNLTTLDLSENQLTQLPSEITELKNLTTLNLSGNQLTQLPSEIGELKSLTSFDLSVNQLTQLPPEIGELKNLTILNVYRNQLIQLLPEITELKNLTTLDLSLNKLTQLPPLEHHHHHH	failed
MTATAQQLEYLKNSIKSIQDYPKPGILFRDVTSLLEDPKAYALSIDLLVERYKNAGITKVVGTEARGFLFGAPVALGLGVGFVPVRKPGKLPRETISETYDLEYGTDQLEIHVDAIKPGDKVLVVDDLLATGGTIEATVKLIRRLGGEVADAAFIINLFDLGGEQRLEKQGITSYSLVPFPGH	not failed
RDFLPALGSMRPPIIIHRAGKKYGFTLRAIRVYMGDSDVYTVHHMVWHVEDGGPASEAGLRQGDLITHVNGEPVHGLVHTEVVELILKSGNKVAISTTPLENTSIKVGPARKGSY	failed
MGDGAVKQGFLYLQQQQTFGKKWRRFGASLYGGSDCALARLELQEGPEKPRRCEAARKVIRLSDCLRVAEAGGEASSPRDTSAFFLETKERLYLLAAPAAERGDWVQAICLLAF	not failed
MNQLTSSFIQNLAEDNIYKLPPHSIEAEQSVLGGLMLDNQAWDKVADIIIESDFYRQDHQLIYQHISRLIEQNKPADVITVAESLENAAQLQHAGGLAYIGAIAQNTPSAANIRRYAEIVRERSIMRKL	failed
MQKINIDRHATAQINMLANKLMLKSSTAYTQKFGIGMTEWRIISVLSSASDCSVQKISDILGLDKAAVSRTVKKLEEKKYIEVNGHSEDKRTYAINLTEMGQELYEVASDFAIEREKQLLEEFEEAEKDQLFILLKKLRNKVDQM	not failed
MRSFSKFAQIVFFGLLIVSAIFVVSCGGSGNAVLNKDKPLVFFNRQPSDPTTGEIDMTSMNWNDKTYYVGFDAAGGGAVQGKLITDFLVSAETSLDRNGDGIIGYVLCIGDVGHNDSKARTEGIRKALGTWAGSTDPGKTKQGSITIAGKTFDVVELEGKAMTGTDGSTWNANAATEAMGGWATKFADQIDMVVSNNDGMAMGCLQASNYPAGVPIFGYDANADAIEAVGKGLLTGTVSQNVDAQATATLQVLRNLLDGLTGTDVYTKGITAEDSYGNKISAPVQYWADVKAVMAANSGVTKANYENYLGGTRDAGIKQTNAPKKKVLLTIYNSGDNFLSSSYLPALKYYAPLLNIELTIVQGDGQNESSCLDKFTNLNNFDAFAVNMVKTNSGSNYTDKLKY	failed
MLETLYAFFDLGQFSQSPINGSHNPGLVILSYCVALLASYTAILTLERVQIYQAKVARYSWLIVSAVISGVGVWSMHFIGMLAFELHLPMSHSVLLTLISVVPAIVGSFIAMKIQMSLSSVRATLIAGTVLGAGIGLMHYTGMAAMEMSAHLRYDPLWFVLSVFVAVSLGIIALLAYRHYKKSERTSWFRRRSAQIVVAAIIALAISGMHYTAMIAANFYPTRAPDAVFSGHGNWLAYVVGIGSCLTAIMAIIASQIDRRLQQQQKLAQMSAEQLYEVISAIDDGLLLFDEHNRVLLANQAFTRLTGDDLERIKGSKLNIEDYIERSDKLLENIKNSLARRVAWQGKVNVRKRSGTTFPVRLSISKVRYNQQKERHFVATVTDISAEVESSERIRYLAYNDALTGLANRRSLLDHLQDQLATYKEAGQNGALILCDIDKFKILNNTLGSDMGDLLLKRVAERLQSSTKANSFLARLSANEFAVVLTGLERGNSVNIKQQLLTRIYQLLDQLQQPYQLNSYTHLCSFSAGASLFDDSESNAETLMTQSGLALSHSKRKGTGEVSLFRQEFADAVSKRVKLEEQLRNAIKQNEFELYLQPQVNIESKPTGAEALIRWKQSDGRFVSPADFIPLAEETGLIVPLGYWITERACQILQQWQQSPEKAKMQLSINVSAKQFQQPEFVEQVQLLVEKYEIRPHRLKLELTESLLMDDISSVTNKIKQLKRLGIEFALDDFGTGYSSLSYLMQIPFDTLKIDVSFVRNMLDSMEKAQIVYTIIQLGESLKLNIVAEGVETEEQFNYLARLNCDTFQGYLFSKPVPESEFLADKTAP	failed
MSLSELSPCHVRSGRIMTVDGPIPSSALGHTLMHEHLQNDCRCWWNPPQEPERQYLAEAPISIEILSELRQDPFVNKHNIALDDLDLAIAEVKQFAAVGGRSIVDPTCRGIGRDPVKLRRISAETGVQVVMGAGYYLASSMPETAARLSADDIADEIVAEALEGTDGTDARIGLIGEIGVSSDFTAEEEKSLRGAARAQVRTGLPLMVHLPGWFRLAHRVLDLVEEEGADLRHTVLCHMNPSHMDPVYQATLAQRGAFLEFDMIGMDFFYADQGVQCPSDDEVARAILGLADHGYLDRILLSHDVFVKMMLTRYGGNGYAFVTKHFLPRLRRHGLDDAALETLMVTNPRRVFDASIEGHHHHHH	not failed
MTERKLVAERNFEVNGYDIDAMGIVSNIVYIRWFEDLRTDFINQYMPYSDMMNQQISPILMNTEAEYKTPITIHDKPVGRCYLVKASKLRWEFEFEIESEDAVHCIGKQSGTFFDLQKKKVTRLPEVFQTILSLEHHHHHH	failed
MGENNSHKHSLLFIVLISCAAGLGGLLYGYDTAVISGAIGFLKKLYNLSPAMQGFVISSIMVGGVLGVGFSGFLGDAIGRRKVLMLAAALFAISAVISSISTSAFMLIFARIVGGLGIGMASALSVTYITECAPPSIRGRLSSLYQLFTILGISITFFVNLGIVNMGSETWRVSTGWRYMLACGTVPAIVFLITLFFVPESPRFLVKSGNIKKAAAVLTKINGAEIAKQELDSISKSLATENDSSLGQLLQPGLRRALLIGIFLAIFNQAIGMNSITYYGPEIFQMIGFKNNSSFLATSVIGVVEVFSTILAMFLIDKLGRKKLMEIGSAAMAVFMLLIGTSFYIKLSNGFVILIFIICFVVSFCISMGPIPWIMIPEIFPNHLRARATGIATIFLWGANWAIGQFTPMLLNGIGGAYTFWIFCGINVICFLVVTTKVPETKNKSLEEIEKFWIPKSKQNAKGSSVGAK	failed
